Laboratory results reported in patent publication US20190225662A1.

Key:
[1] = molecular target: GABAB Receptor from rat whole-brain synaptosome extracts (rat); assay: affinity pull-down with sAPPα-Fc bait on rat synaptosome extracts, LCLC-MS/MS, three repeats
[2] = molecular target: GABABR1a on mouse hippocampal neurons (cultures and slices) (mouse) (UniProt Q9WV18); assay: cell-based or functional assay
Sequence of GABABR1a on mouse hippocampal neurons (cultures and slices) (mouse) (Q9WV18 20-960): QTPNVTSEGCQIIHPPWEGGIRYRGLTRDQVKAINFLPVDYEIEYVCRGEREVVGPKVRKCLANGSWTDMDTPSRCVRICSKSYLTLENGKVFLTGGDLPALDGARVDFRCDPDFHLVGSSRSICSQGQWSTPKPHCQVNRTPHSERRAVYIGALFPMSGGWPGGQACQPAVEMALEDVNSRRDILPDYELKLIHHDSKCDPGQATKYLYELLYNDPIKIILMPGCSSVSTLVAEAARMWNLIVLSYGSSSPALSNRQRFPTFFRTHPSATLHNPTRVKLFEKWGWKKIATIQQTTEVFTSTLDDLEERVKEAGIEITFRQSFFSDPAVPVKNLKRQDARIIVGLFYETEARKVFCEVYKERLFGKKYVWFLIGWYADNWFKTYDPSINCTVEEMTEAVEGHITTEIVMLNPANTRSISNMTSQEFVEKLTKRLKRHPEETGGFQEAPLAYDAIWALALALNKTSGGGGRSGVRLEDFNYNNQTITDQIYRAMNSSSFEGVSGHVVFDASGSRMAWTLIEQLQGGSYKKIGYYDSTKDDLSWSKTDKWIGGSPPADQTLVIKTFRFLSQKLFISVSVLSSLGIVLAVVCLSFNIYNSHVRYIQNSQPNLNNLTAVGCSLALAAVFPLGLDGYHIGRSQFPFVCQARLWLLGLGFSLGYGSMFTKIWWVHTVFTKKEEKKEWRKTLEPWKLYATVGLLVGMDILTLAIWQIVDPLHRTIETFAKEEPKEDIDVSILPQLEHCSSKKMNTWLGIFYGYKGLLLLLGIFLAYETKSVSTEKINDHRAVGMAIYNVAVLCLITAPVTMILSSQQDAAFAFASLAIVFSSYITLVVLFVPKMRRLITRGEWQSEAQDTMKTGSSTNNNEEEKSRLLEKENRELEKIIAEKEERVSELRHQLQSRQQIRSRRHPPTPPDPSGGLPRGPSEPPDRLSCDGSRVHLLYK

Sequence of GABAB Receptor from rat whole-brain synaptosome extracts (rat) (Q9Z0U4 20-960, chain 1 of 2): as the sequence (Q9WV18 20-960) above, with V5A, D108E, I124V, I702V, A850T, I902L counted along it
Sequence of GABAB Receptor from rat whole-brain synaptosome extracts (rat) (O88871 41-940, chain 2 of 2, further chain): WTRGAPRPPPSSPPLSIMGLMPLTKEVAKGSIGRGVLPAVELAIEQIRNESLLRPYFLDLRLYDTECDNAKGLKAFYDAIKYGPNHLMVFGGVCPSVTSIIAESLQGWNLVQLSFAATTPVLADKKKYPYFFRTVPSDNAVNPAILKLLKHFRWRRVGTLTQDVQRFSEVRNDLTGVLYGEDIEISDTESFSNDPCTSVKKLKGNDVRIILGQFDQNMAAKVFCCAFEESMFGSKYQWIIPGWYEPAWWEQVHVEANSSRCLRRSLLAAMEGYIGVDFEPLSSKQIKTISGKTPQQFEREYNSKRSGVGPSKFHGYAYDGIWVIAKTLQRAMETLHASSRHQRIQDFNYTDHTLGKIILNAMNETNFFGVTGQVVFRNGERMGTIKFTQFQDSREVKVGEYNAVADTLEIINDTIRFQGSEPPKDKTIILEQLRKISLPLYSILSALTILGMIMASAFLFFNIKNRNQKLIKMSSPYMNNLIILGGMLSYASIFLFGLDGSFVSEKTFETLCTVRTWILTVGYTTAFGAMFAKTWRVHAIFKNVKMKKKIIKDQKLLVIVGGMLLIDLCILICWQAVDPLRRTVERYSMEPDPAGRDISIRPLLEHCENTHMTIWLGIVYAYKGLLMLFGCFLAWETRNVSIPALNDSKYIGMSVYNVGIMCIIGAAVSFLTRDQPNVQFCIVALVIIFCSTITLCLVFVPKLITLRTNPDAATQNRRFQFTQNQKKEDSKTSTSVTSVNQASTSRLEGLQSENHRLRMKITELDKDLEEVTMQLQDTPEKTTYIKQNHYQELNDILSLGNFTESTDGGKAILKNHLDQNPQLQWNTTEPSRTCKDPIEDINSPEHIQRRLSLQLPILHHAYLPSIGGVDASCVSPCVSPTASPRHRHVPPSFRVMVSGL

| summed peptide count [1] | summed spectra count [1] | reduction in mIPSC frequency, 250 nM [2] [%] | Substance |
| --- | --- | --- | --- |
| 35 | 22 |  | sAPPα-Fc (soluble amyloid precursor protein α fused to human Fc) (from UniProt P12023 18-612) (Fc fusion) |
|  |  | 17 | sAPLP1 (without Fc) (from UniProt Q03157 38-583) (ligand) |
